Experimental data reported in paper PMC7092940 (2005).

Target: the molecule itself

B1: SARS 3CL proteinase (protein)
chain: SGFRKMAFPSGKVEGCMVQVTCGTTTLNGLWLDDTVYCPRHVICTAEDMLNPNYEDLLIRKSNHSFLVQAGNVQLRVIGHSMQNCLLRLKVDTSNPKTPKYKFVRIQPGQTFSVLACYNGSPSGVYQCAMRPNHTIKGSFLNGSCGSVGFNIDYDCVSFCYMHHMELPTGVHAGTDLEGKFYGPFVDRQTAQAAGTDTTITLNVLAWLYAAVINGDRWFLNRFTTTLNDFNLVAMKYNYEPLTQDHVDILGPLSAQTGIAVLDMCAALKELLQNGMNGRTILGSTILEDEFTPFDVVRQCSGVTFQ
Kd: 14 µM
